Test results: paper PMC6321638

Molecular target: L52A or F85A
Test: pull-down; GST-pulldown: purified His-SOUL (5 µM) and GST-ALG-2 (5 µM) with Glutathione Sepharose 4B in buffer B (100 mM Tris-HCl pH 7.5, 100 mM NaCl, 10% glycerol) with 20 µM CaCl2 (or various amounts of Ca2+), 30 min at 4 °C; SDS-PAGE, Coomassie

B1: His-SOUL^WT (wild-type SOUL fused to His-tag) (natural protein)
chain: MAEEPEPDLGVAEGSEDQALEMPSWKAPEDIDPQPGSYEIRHYGPAKWVSTCVESLDWDSAIQTGFTKLNGYIQGKNEKEMKIKLTAPVTSYVEPGSSPFSESTITISLYIPSEQQPDPPRPSESDVFIEDRAEMTVFVRSFDGFSSGQKNQEQLLTLANILREEGKVFNEKVFYTAGYSSPFQLLDRNNEVWLIQKNEPSVENK
Work on B1 yielded a binding relative to ALG-2^WT (percent) of 80 to 90%.
